Starred links: 1 amine or outer side, 2 acyl side, 3 side chain; linkers in the order of their positions; H or OH if unused. Non-standard residues stand in square brackets, D forms with d. Primed or numbered codes have the meaning given here. *: point of attachment. NPipG = 2-(piperidin-4-ylamino)acetic acid, O=C(CN(C1CCN([*:3])CC1)[*:1])[*:2]; AC4Abu = α-carboxy-4-aminobutyric acid, O=C(C(CCN[*:1])C(=O)[*:3])[*:2]; Oic = O=C(O)[C@@H]1C[C@@H]2CCCC[C@@H]2N1; Phe(4-Cl) = N[C@@H](Cc1ccc(Cl)cc1)C(=O)O; γGlu = O=C(O)[C@H](CCC(=O)[*:2])N[*:1]; d(β3hF) = N[C@@H](CC(=O)O)Cc1ccccc1; NMeR = CN[C@@H](CCCNC(=N)N)C(=O)O; Palmitoyl = CCCCCCCCCCCCCCCC(=O)*; Cha = N[C@@H](CC1CCCCC1)C(=O)O; αMeL = CC(C)C[C@](C)(N)C(=O)O; β3hP = O=C(O)C[C@@H]1CCCN1; Nle = CCCC[C@H](N)C(=O)O; Orn = NCCC[C@H](N)C(=O)O; Pip′ = not defined here; Dap = NC[C@H](N)C(=O)O; AEEA = NCCOCCOCC(=O)O; Aib = CC(C)(N)C(=O)O; NPrGly = CCCNCC(=O)O; BLeu = β-leucine; Sar = CNCC(=O)O
T1: rat APJ receptor (rat, UniProt Q9JHG3 1-377)
T1 sequence (looked up): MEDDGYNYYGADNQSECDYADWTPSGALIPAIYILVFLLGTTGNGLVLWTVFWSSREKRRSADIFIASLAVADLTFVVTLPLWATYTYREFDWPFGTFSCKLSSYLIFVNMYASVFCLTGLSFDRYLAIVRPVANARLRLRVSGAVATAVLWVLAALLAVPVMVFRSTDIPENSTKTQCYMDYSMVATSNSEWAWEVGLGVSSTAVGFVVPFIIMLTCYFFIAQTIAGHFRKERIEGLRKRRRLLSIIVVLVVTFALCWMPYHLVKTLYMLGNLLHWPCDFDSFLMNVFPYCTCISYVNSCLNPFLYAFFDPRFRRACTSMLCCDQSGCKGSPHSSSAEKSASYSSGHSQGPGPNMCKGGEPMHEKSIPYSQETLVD

T2: human APJ receptor (human, UniProt P35414 1-380)
T2 sequence (looked up): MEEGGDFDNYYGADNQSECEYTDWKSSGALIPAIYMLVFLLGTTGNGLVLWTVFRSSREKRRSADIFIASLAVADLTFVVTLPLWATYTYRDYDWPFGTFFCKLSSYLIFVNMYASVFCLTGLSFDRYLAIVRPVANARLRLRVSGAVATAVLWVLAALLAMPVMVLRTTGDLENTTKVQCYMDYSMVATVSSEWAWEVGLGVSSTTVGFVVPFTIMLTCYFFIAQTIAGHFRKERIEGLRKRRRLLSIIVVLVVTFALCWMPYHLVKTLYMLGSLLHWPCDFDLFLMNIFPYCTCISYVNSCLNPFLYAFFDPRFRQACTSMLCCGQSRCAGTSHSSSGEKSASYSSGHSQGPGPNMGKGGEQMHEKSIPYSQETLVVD

B1: SEQ ID NO: 632 (peptide)
peptide: Palmitoyl-[γGlu][AEEA][AEEA][dQ]RP[NMeR][αMeL]SH[NPipG]G[Oic][Nle][β3hP][Phe(4-Cl)]-OH
SMILES: CCCCCCCCCCCCCCCC(=O)N[C@@H](CCC(=O)NCCOCCOCC(=O)NCCOCCOCC(=O)N[C@H](CCC(N)=O)C(=O)N[C@@H](CCCNC(=N)N)C(=O)N1CCC[C@H]1C(=O)N(C)[C@@H](CCCNC(=N)N)C(=O)N[C@@](C)(CC(C)C)C(=O)N[C@@H](CO)C(=O)N[C@@H](Cc1c[nH]cn1)C(=O)N(CC(=O)NCC(=O)N1[C@H](C(=O)N[C@@H](CCCC)C(=O)N2CCC[C@H]2CC(=O)N[C@@H](Cc2ccc(Cl)cc2)C(=O)O)C[C@@H]2CCCC[C@@H]21)C1CCNCC1)C(=O)O
B2: SEQ ID NO: 634 (peptide)
peptide: Palmitoyl-[γGlu][AEEA][AEEA][dQ]RP[NMeR][αMeL]SH[Orn]G[Oic][Nle][β3hP][Phe(4-Cl)]-OH
SMILES: CCCCCCCCCCCCCCCC(=O)N[C@@H](CCC(=O)NCCOCCOCC(=O)NCCOCCOCC(=O)N[C@H](CCC(N)=O)C(=O)N[C@@H](CCCNC(=N)N)C(=O)N1CCC[C@H]1C(=O)N(C)[C@@H](CCCNC(=N)N)C(=O)N[C@@](C)(CC(C)C)C(=O)N[C@@H](CO)C(=O)N[C@@H](Cc1c[nH]cn1)C(=O)N[C@@H](CCCN)C(=O)NCC(=O)N1[C@H](C(=O)N[C@@H](CCCC)C(=O)N2CCC[C@H]2CC(=O)N[C@@H](Cc2ccc(Cl)cc2)C(=O)O)C[C@@H]2CCCC[C@@H]21)C(=O)O
B3: SEQ ID NO: 616 (peptide)
peptide: Palmitoyl-[γGlu][AEEA][AEEA][dQ]RP[NMeR][Cha]S[Dap]KG[Oic][Nle][β3hP][d(β3hF)]-OH
SMILES: CCCCCCCCCCCCCCCC(=O)N[C@@H](CCC(=O)NCCOCCOCC(=O)NCCOCCOCC(=O)N[C@H](CCC(N)=O)C(=O)N[C@@H](CCCNC(=N)N)C(=O)N1CCC[C@H]1C(=O)N(C)[C@@H](CCCNC(=N)N)C(=O)N[C@@H](CC1CCCCC1)C(=O)N[C@@H](CO)C(=O)N[C@@H](CN)C(=O)N[C@@H](CCCCN)C(=O)NCC(=O)N1[C@H](C(=O)N[C@@H](CCCC)C(=O)N2CCC[C@H]2CC(=O)N[C@@H](CC(=O)O)Cc2ccccc2)C[C@@H]2CCCC[C@@H]21)C(=O)O

Target: T1, rat APJ receptor
Test: cell-based or functional assay

| EC50 Rat APJ Receptor | Binder |
| --- | --- |
| 3.66 nM | Palmitoyl-[AC4Abu][AEEA][AEEA][dQ]RP[NMeR][αMeL]SHK[Sar][Oic][Nle][β3hP][Phe(4-Cl)]-OH [SEQ ID NO: 641] |
| 22 nM | B1 |
| 4.2 nM | Palmitoyl-[AC4Abu][AEEA][AEEA][dQ]RP[NMeR][Cha]S[NPrGly]KG[Pip′][Nle][Aib][Phe(4-Cl)]-OH [SEQ ID NO: 644] |
| 3.79 nM | Palmitoyl-[AC4Abu][AEEA][AEEA][dQ]RP[NMeR][Cha][NPrGly]HKG[Pip′][Nle][Aib][Phe(4-Cl)]-OH [SEQ ID NO: 643] |
| 2.21 nM | B2 |
| 0.699 nM | Palmitoyl-[γGlu][AEEA][AEEA][dQ]RP[NMeR][αMeL]SHKG[Oic][Nle][β3hP][Phe(4-Cl)]-OH (not fully specified (residue 10)) [SEQ ID NO: 631] |
| 17.2 nM | B3 |
| 23.2 nM | Palmitoyl-[γGlu][AEEA][AEEA][dQ]RP[NMeR][Cha][BLeu]HKG[Oic][Nle][β3hP][d(β3hF)]-OH [SEQ ID NO: 615] |

Target: T2, human APJ receptor
Test: cell-based or functional assay

| EC50 Human APJ Receptor | Binder |
| --- | --- |
| 0.58 nM | Palmitoyl-[AC4Abu][AEEA][AEEA][dQ]RP[NMeR][αMeL]SHK[Sar][Oic][Nle][β3hP][Phe(4-Cl)]-OH [SEQ ID NO: 641] |
| 3.02 nM | B1 |
| 1.4 nM | Palmitoyl-[AC4Abu][AEEA][AEEA][dQ]RP[NMeR][Cha]S[NPrGly]KG[Pip′][Nle][Aib][Phe(4-Cl)]-OH [SEQ ID NO: 644] |
| 0.463 nM | Palmitoyl-[AC4Abu][AEEA][AEEA][dQ]RP[NMeR][Cha][NPrGly]HKG[Pip′][Nle][Aib][Phe(4-Cl)]-OH [SEQ ID NO: 643] |
| 0.164 nM | B2 |
| 0.338 nM | Palmitoyl-[γGlu][AEEA][AEEA][dQ]RP[NMeR][αMeL]SHKG[Oic][Nle][β3hP][Phe(4-Cl)]-OH (not fully specified (residue 10)) [SEQ ID NO: 631] |
| 2.75 nM | B3 |
| 9.42 nM | Palmitoyl-[γGlu][AEEA][AEEA][dQ]RP[NMeR][Cha][BLeu]HKG[Oic][Nle][β3hP][d(β3hF)]-OH [SEQ ID NO: 615] |
